This is an account of results in WO2019006280A1 (dated 2019).

For this experiment, the target named is T1, cell-surface CD33 on the CD33-positive AML cell line MV4-11 (UniProt P20138 18-364).
T1 construct: whole, on cells; Endogenous CD33 of the MV4-11 cell line; also called cell-surface expressed CD33; CD33-postive MV4-11 cells
The experiment in a line: flow cytometry on MV4-11 cells, binder at 10 ug/ml, PE anti-flag. For orientation: In flow cytometry, cells or beads pass a laser one at a time.

T1 sequence (P20138 18-364 limits assumed): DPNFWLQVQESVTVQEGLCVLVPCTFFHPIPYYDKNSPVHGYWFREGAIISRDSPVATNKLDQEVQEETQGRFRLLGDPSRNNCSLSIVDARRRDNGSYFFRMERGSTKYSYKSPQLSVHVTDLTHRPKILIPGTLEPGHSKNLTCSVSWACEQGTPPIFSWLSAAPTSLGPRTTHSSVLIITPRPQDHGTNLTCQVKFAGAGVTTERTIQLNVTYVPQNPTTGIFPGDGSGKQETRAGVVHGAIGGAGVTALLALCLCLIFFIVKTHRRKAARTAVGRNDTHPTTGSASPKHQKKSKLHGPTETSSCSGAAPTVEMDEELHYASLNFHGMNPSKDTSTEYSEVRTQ

B1: ml033-2 VH domain antibody (VHH)
VHH: EVQLVESGGGLVQPGGSLRLSCAASGFTFSSYGMSWVRQAPRKGLEWIGEINHSGSTNYNPSLKSRVTISRDNSKNTLYLQMNSLRAEDTATYYCARPLNYYYYYMDVWGKGTTVTVSS
notes: also called single domain antibody ml 033-2; m1033-2; not shown: His and Flag tags
As for B1, the binding result is “binds”.
